According to EP4703387A1 (University of Tsukuba, dated 2026):
Each block holds one binder with its values, some of them ahead of it.

Assays:
[1] = molecular target: T1, human CD300C (human, UniProt Q08708 21-224); test: flow cytometry on BW/huCD300C cells, purified antibody
T1 construct: whole, on cells; also called huCD300C; BW/huCD300C
T1 sequence (looked up): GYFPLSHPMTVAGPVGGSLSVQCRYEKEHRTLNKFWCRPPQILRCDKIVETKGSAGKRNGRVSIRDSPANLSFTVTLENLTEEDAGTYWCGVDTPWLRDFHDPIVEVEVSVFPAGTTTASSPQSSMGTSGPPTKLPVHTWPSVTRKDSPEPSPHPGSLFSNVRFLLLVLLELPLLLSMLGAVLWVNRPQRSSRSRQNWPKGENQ

[2] = molecular target: T2, human CD300A-Q (human, UniProt Q9UGN4 18-299); test: flow cytometry on BW/huCD300A-Q cells, purified antibody, 0.5 µg per 1 × 10^5 cells
T2 construct: whole, on cells; also called huCD300A-Q; human CD300A^Gln111
T2 sequence (looked up): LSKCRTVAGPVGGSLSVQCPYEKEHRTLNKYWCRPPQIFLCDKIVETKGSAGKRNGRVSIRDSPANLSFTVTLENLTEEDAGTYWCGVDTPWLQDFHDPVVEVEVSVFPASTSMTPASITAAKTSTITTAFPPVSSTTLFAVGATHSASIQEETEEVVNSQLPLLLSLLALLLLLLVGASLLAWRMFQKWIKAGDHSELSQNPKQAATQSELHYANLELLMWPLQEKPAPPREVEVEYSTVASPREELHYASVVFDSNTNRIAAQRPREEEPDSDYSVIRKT

[3] = molecular target: T2, human CD300A-Q; test: flow cytometry analysis using CD300A-Q
[4] = molecular target: T3, human CD300A-R (as used in the BLI measurement) (human, UniProt Q9UGN4 18-180, limits assumed); test: biolayer interferometry (BLI); format not described
T3 sequence (looked up): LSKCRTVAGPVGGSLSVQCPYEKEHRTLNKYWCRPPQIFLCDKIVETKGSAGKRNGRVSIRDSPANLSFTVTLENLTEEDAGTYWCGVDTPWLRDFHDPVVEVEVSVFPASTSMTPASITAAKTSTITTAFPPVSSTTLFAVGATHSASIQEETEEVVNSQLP

[5] = molecular target: T1, human CD300C; test: flow cytometry on BW/huCD300C cells, biotinylated antibody with SA-APC
[6] = molecular target: T2, human CD300A-Q; test: assay not named for Hu NO. 1T on CD300A-Q (CD300A-Q flow cytometry is listed for Hu NO. 1R, 1U and 1W)
[7] = molecular target: T2, human CD300A-Q; test: assay not named for Hu NO. 1V on CD300A-Q (CD300A-Q flow cytometry is listed for Hu NO. 1R, 1U and 1W)
[8] = molecular target: T2, human CD300A-Q; test: assay not given; reference antibody in the CD300A-Q flow cytometry comparison of paragraph 258

B2: HuNO.1R (antibody, V domains shown)
VH: EVQLVESGGGLVQPGGSLRLSCAASGFTFSSYGMSWVRQAPGKRLEWVATISSGGSYTYYPDSVKGRFTISRDNAKNSLYLQMNSLRAEDTAVYYCARHGDYGYPWFAYWGQGTMVTVSS
VL: QIQMTQSPSSLSASVGDRVTMTCTASSSVSSSYLHWYQQKPGKAPKLWIYSTSNLASGVPSRFSGSGSGTDYTLTISSLQPEDFATYYCHQYHRSHTFGGGTKVEIK
notes: Transient HEK293 supernatant; Human IgG/kappa constant regions
binding result [3]: binds

B3: HuNO.1U (antibody, human IgG1, kappa, L234A L235A, V domains shown)
VH: EVQLVESGGGLVQPGGSLRLSCAASGFTFSSYGMSWVRQAPDKRLEWVATISSGGSYTYYPDSVKGRFTISRDNAKNSLYLQMNSLRAEDTAVYYCARHGDYGYPWFAYWGQGTMVTVSS
VL: QIQMTQSPSSLSASVGDRVTMTCTASSSVSSSYLHWYQQKPGKAPKLWIYSTSNLASGVPSRFSGSGSGTDYTLTISSLQPEDFATYYCHQYHRSHTFGGGTKVEIKR
notes: VH = Hu NO; also called Humanized NO; 1 antibody
Kd [4]: 22 nM
binding result [5]: no binding (tested: 0.5 µg antibody per 1 × 10^5 cells)

B4: HuNO.1W (antibody, V domains shown)
VH: EVQLVESGGDLVQPGGSLRLSCAASGFTFSSYGMSWVRQAPGKRLEWVATISSGGSYTYYPDSVKGRFTISRDNAKNSLYLQMNSLRAEDTAVYYCARHGDYGYPWFAYWGQGTMVTVSS
VL: QIQMTQSPSSLSASVGDRVTMTCTASSSVSSSYLHWYQQKPGKAPKLWIYSTSNLASGVPSRFSGSGSGTDYTLTISSLQPEDFATYYCHQYHRSHTFGGGTKVEIK
notes: as for B2
binding result [3]: binds

B5: HuNO.1T (antibody, V domains shown)
VH: EVQLVESGGGLVQPGGSLKLSCAASGFTFSSYGMSWVRQAPGKRLEWVATISSGGSYTYYPDSVKGRFTISRDNAKNSLYLQMNSLRAEDTAVYYCARHGDYGYPWFAYWGQGTMVTVSS
VL: QIQMTQSPSSLSASVGDRVTMTCTASSSVSSSYLHWYQQKPGKAPKLWIYSTSNLASGVPSRFSGSGSGTDYTLTISSLQPEDFATYYCHQYHRSHTFGGGTKVEIK
notes: as for B2
binding result [6]: binds

B6: HuNO.1V (antibody, V domains shown)
VH: EVQLVESGGGLVQPGGSLRLSCAASGFTFSSYGMSWVRQAPGKRLEWVATISSGGSYTYYPDSVKGRFTISRDNAKNSLYLQMNSLRAEDTAMYYCARHGDYGYPWFAYWGQGTMVTVSS
VL: QIQMTQSPSSLSASVGDRVTMTCTASSSVSSSYLHWYQQKPGKAPKLWIYSTSNLASGVPSRFSGSGSGTDYTLTISSLQPEDFATYYCHQYHRSHTFGGGTKVEIK
notes: Position 89 may be a Kabat number rather than a count on the entry; Transient HEK293 supernatant; Human IgG/kappa constant regions
binding result [7]: binds

Second part, led by results:

binding result [2]: binds
B1: Antibody NO. 3 (antibody, V domains shown)
VH: QIQLVQSGPELKKPGETVKISCKASGYTFTHYGLNWVKQAPGKGLQWMGWIHTYTGESTYADDFKGRSAFSLETSASTAYLQINNLKNEDTATYFCARGGKDALDYWGQGTSVTVSS
VL: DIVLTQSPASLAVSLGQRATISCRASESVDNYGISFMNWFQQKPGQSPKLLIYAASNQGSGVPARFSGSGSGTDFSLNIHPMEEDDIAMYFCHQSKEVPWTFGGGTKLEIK
notes: Mouse monoclonal antibody from a hybridoma
binding result [1]: no binding (tested: 0.5 µg antibody per 1 × 10^5 cells)

binding result [2]: binds
B7: Antibody NO. 1 (antibody, V domains shown)
VH: EVQLVESGGDLVKPGGSLKLSCAASGFTFSSYGMSWVRQTPDKRLEWVATISSGGSYTYYPDSVKGRFTISRDNAKNTLYLQMSSLKSEDTAMYYCARHGDYGYPWFAYWGQGTLVTVSA
VL: QIVLTQSPAIMSASLGERVTMTCTASSSVSSSYLHWYQQKPGSSPKLWIYSTSNLASGVPARFSGSGSGTSYSLTISSMEAEDAATYYCHQYHRSHTFGGGTKLEIK
notes: Mouse monoclonal antibody from a hybridoma, purified from ascites; also called mouse Antibody NO
binding result [1]: no binding (tested: 0.5 µg antibody per 1 × 10^5 cells)

binding result [8]: binds
B8: chimeric NO. 1 IgG1/kappa antibody (Ch NO. 1) (antibody, V domains shown)
VH: EVQLVESGGDLVKPGGSLKLSCAASGFTFSSYGMSWVRQTPDKRLEWVATISSGGSYTYYPDSVKGRFTISRDNAKNTLYLQMSSLKSEDTAMYYCARHGDYGYPWFAYWGQGTLVTVSA
VL: QIVLTQSPAIMSASLGERVTMTCTASSSVSSSYLHWYQQKPGSSPKLWIYSTSNLASGVPARFSGSGSGTSYSLTISSMEAEDAATYYCHQYHRSHTFGGGTKLEIK
notes: Mouse NO; 1 VH and VL on human γ-1 and κ constant regions; The γ-1 chain carries L234A/L235A; also called mouse-human chimeric NO; 1 IgG1/kappa antibody
